The target of series [1] is T1, HrpA75-1300 (no APHB) (Escherichia coli, UniProt P43329 75-1300).
T1 sequence: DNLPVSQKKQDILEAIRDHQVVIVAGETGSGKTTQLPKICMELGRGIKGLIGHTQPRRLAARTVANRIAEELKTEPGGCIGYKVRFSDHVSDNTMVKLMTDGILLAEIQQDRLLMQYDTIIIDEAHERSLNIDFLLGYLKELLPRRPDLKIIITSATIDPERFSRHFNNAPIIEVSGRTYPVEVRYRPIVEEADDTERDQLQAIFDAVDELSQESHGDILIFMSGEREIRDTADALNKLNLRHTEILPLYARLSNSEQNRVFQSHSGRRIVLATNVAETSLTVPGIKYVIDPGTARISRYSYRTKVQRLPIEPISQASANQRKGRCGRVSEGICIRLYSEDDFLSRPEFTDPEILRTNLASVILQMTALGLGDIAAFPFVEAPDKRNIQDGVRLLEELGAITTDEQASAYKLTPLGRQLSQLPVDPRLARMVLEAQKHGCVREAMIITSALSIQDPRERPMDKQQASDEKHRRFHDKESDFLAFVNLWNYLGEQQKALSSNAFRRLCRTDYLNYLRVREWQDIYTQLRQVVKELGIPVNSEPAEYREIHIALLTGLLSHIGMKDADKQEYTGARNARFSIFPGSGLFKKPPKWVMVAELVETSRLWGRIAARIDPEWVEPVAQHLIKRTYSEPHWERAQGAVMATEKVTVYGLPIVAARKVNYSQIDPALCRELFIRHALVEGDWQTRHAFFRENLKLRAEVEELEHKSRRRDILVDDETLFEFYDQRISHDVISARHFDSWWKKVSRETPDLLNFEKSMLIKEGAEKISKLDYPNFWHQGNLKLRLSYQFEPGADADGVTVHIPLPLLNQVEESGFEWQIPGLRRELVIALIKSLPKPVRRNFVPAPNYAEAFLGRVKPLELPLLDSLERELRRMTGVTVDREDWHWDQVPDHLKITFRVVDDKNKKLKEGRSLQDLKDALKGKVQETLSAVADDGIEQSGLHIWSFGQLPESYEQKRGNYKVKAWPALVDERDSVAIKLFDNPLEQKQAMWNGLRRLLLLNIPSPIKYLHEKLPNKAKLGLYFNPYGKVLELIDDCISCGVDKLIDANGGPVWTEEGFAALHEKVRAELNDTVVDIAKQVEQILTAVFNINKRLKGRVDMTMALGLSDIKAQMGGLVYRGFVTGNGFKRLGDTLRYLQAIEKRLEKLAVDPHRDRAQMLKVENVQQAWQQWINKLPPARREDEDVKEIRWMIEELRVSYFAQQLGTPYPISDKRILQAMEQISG
The series is described as follows: fluorescence anisotropy. Background: Fluorescence polarisation rises when a labelled molecule tumbles more slowly, as on binding a larger partner.

In series [2] the target is T2, HrpA1-1300 E49A (Escherichia coli, UniProt P43329 1-1300, E49A).
T2 sequence: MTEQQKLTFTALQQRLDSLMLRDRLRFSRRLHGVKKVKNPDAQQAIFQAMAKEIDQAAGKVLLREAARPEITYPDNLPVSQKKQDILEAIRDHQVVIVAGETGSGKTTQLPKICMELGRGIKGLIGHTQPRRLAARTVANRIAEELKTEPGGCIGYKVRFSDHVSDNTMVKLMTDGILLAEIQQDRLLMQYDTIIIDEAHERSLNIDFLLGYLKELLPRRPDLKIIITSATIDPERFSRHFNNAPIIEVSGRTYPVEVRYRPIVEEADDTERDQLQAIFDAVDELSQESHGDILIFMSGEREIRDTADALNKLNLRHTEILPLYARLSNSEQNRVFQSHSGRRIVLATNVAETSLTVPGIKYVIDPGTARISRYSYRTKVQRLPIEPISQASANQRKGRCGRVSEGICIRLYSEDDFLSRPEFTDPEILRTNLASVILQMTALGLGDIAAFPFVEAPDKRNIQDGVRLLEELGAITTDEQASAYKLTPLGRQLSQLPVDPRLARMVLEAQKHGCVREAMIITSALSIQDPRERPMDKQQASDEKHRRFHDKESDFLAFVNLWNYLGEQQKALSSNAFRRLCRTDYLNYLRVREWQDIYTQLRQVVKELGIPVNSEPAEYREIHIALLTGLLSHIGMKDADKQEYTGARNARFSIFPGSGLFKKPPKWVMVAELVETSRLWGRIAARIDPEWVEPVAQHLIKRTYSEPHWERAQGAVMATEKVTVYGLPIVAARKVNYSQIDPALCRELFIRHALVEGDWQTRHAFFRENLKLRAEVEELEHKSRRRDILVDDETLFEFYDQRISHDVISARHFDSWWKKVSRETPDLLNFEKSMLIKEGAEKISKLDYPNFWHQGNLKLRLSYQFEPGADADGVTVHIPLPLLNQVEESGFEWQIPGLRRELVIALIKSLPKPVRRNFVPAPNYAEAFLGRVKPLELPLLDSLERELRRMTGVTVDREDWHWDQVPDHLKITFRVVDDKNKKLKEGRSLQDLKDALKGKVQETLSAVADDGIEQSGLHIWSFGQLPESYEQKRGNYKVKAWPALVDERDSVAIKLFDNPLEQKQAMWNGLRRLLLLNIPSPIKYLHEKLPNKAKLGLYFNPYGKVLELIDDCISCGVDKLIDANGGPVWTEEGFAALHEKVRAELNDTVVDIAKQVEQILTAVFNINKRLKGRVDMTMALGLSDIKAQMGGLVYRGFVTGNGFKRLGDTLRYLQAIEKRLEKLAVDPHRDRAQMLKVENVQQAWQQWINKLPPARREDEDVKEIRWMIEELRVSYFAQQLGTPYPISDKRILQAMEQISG
The series is described as follows: fluorescence anisotropy.

For series [3], the target named is T3, HrpA1-630 (Escherichia coli, UniProt P43329 1-630).
T3 sequence: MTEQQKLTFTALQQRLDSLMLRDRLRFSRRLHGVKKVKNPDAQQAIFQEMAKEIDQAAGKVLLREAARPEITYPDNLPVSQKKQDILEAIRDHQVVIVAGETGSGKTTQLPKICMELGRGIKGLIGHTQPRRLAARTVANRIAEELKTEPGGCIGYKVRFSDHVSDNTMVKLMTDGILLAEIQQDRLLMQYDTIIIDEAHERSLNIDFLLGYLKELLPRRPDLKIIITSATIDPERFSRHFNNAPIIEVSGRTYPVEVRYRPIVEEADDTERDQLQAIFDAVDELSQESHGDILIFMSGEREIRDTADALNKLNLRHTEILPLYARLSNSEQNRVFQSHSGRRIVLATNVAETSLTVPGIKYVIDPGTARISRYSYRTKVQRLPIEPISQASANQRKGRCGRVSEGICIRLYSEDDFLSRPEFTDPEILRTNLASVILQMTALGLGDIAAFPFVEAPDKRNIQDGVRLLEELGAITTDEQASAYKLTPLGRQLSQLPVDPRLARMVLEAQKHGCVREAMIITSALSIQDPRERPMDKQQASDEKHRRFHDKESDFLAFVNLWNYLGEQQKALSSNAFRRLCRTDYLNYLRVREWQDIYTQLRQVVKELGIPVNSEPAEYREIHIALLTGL
The series is described as follows: crystal structure.

Series [4] addresses T3, HrpA1-630. The series is described as follows: crystal structure. The source holds these as a separate data set.

The text below walks through data of article PMC11014265.

Where two headings read alike, the source gives them in different places.

Consider GTGTGTGTGTGT (ssDNA) [D-G-rich], for which the figures for the binding result in series [1] and in series [2] were “no binding” and “binds”, respectively.

B1: D-C11 i-motif (structured_DNA)
DNA 1: CCCCCCCCCCC
DNA 2: CCCCCCCCCCC
B1: in series [3], the binding result is reported as “binds”. Take CCCCCCCCCCC (ssDNA) [D-C11, C2 complex]: the binding result in series [4] is on record as “binds”.
